± gives the uncertainty stated by the source.
assay: amyloid nucleation score (Sup35N fusion, yeast selection) (log enrichment); library NNK3; higher = more nucleation; inactive = no reads after selection
Procedure, shortened: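 Plasmid inserts were Illumina-sequenced at input and output from psi-negative yeast expressing Sup35N fused to peptides of 20 random codons. The yeast were induced with 100 μM copper sulfate for 24 hours and grown 7 days at 30°C on medium lacking adenine and uracil, and sequences with under 100 input reads were excluded. Nucleation score is the DiMSum log enrichment of output over input reads, centred on the mode score of non-aggregating sequences.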

Substance	amyloid nucleation score
FCHRYEMYIELTYTEGA	inactive
FCLCAFSALQRVYI	inactive
FCLVFSELILFCVCSWVNST	inactive
FCRCKLFFAGCF	1.08 ± 0.13
FCRHVKFYRMRAACVDNRRI	inactive
FDGYCFFYYWLGVWWSTSI	inactive
FDKTCGSSRNLSRAWDNLTF	inactive
FDVNIPFCSNSFSYHTNSGS	inactive
FECGRFMGLVVLAVRSGNVM	inactive
FEDLKTDSILYQFSRAYGDW	inactive
FEETIINFCRYLFMMFTGVV	1.87 ± 0.1
FEIRLFISGQDQAHGCCPWY	inactive
FELDIAYTEVLAVDCIPVVL	inactive
FEYNRQYTRLSSVRVRIRGS	inactive
FFADGARVYFANHVSKAFWF	1.96 ± 0.083
FFARMTALPLLQILYGSLRA	inactive
FFCRKAHLMVVFFSSMRMTG	inactive
FFFKSLEVSVTQR	inactive
FFGKAT	inactive
FFISVLFWNPGISFRITIAA	inactive
FFLGVSDSMKFLYLMPTEFD	inactive
FFLMKDSLLSSVERSIGVIG	inactive
FFLSFRYLKKFSRIGLW	inactive
FFLTYTIECVGLNHMILSIM	inactive
FFLWVYLLKSFSS	inactive
FFNIMCYRHWLKVKLYYIVK	1.9 ± 0.06
FFPMLIARMDALPRPVNLGY	inactive

Substance	amyloid nucleation score
FFVKEFLVLDICGMTLPFDI	inactive
FFWKILALPSE	inactive
FFYEPGVPRFYFQLFLLLSF	inactive
FFYYMYMFDVITILRVIMGC	inactive
FGAMGGCGNRWKFYQRFTDP	inactive
FGAVVDYNFSN	-0.695 ± 0.96
FGDAYM	inactive
FGFIILDLTR	inactive
FGIEQTWSNECSVKTVEMRC	inactive
FGKGRHWISAPSRWVRGDFG	inactive
FGLGQIRFSHIICLNLILSL	2.29 ± 0.056
FGMLFIWRK	inactive
FGNGSMNRDRSSM	inactive
FGPAMCYSLIVQLTSVYRGG	1.99 ± 0.087
FGQGGALFLWKCMTYFILLG	inactive
FGRVNCSSNYRNKMISSTRW	inactive
FGSPWPRLQMTQLLIVAMTL	inactive
FGVTVSYKWWRWSPLSYCAM	inactive
FHGKNVF	inactive
FHILIFVKTP	inactive
FHLLPKMCLLLSTLIRSGIT	inactive
FHVVFCDID	inactive
FHVYCVWVRTLSCWRENNVK	1.5 ± 0.14
FHYLMMTFIV	inactive
FICHYEHKKVRHRVYAKAYI	inactive
FIDFGIWC	inactive
FIDMLSYIAYIVLFFGASFV	inactive

Substance	amyloid nucleation score
FIERLARNQFLNAYSMLDCE	inactive
FIFYFCAVLNHYVCVWVRYL	inactive
FIGSGSHEIGGHINGKALSS	0.644 ± 0.19
FIIHHGVYYHAMFMDMLLLM	inactive
FILMLVTKLRAHLRGEIRGE	inactive
FILSVSYIRVCGARC	0.097 ± 0.48
FINFELLRSSSNNV	inactive
FINRVSPYMRSNRSLVGVSS	inactive
FISSSCSFVRCILLVNYKIR	-0.66 ± 1.9
FISWMLAR	0.9 ± 0.12
FITFLLVVFSKKCVNAK	inactive
FIVVPVGVKHDVS	inactive
FIYASCDNHKIDKRYVYLLM	inactive
FKEWVFCMYECE	inactive
FKFKERDHEWYVWFKLKHKS	inactive
FKIKKVN	inactive
FKNLGNTFGLTKRVCV	inactive
FKRHMTINLQRGITLIGIDM	1.93 ± 0.062
FKSASGRL	inactive
FKSYTWMKNLTVGFRIDPSE	inactive
FLAIGLFSSNT	1.73 ± 0.061
FLDQLSVHMQCISLEFNFGV	2.42 ± 0.068
FLEKGLFSLDISFARDLAEA	inactive
FLETVSFPMKVWSL	inactive
FLGLLLIYQPNSIE	inactive

Source: the supplement of paper PMC12042874
